Measured values taken from US20070142277A1.

Biological target: endogenously expressed APP isoforms in SH-SY5Y cells (human) (UniProt P05067)
Experiment: cell-based or functional assay

Sequence of endogenously expressed APP isoforms in SH-SY5Y cells (human) (P05067 18-770): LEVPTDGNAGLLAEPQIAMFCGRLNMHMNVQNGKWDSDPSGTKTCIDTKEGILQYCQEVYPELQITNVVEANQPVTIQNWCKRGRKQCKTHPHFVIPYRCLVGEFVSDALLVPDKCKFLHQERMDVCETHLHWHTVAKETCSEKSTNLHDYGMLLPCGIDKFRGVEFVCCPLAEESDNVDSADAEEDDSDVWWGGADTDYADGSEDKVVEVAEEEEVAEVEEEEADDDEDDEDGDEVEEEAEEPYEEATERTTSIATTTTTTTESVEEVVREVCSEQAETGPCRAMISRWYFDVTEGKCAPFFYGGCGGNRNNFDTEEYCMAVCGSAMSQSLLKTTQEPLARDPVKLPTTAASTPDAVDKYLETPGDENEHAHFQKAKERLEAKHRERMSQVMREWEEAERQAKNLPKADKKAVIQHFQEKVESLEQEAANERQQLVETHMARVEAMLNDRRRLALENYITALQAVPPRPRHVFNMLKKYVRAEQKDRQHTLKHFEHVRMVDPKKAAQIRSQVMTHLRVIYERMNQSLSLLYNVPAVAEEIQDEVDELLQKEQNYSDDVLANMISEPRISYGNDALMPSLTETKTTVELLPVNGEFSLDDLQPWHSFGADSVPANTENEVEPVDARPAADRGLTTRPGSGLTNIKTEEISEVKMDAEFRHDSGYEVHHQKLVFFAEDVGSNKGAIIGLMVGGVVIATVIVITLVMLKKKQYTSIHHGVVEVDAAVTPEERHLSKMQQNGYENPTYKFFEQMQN

Row | Aβ1-40 release, expressed as the percentage of control (cells transfected with the empty vector DNA) | Aβ release (% of control), Aβ1-40 ELISA of conditioned medium of transfected SH-SY5Y cells | Substance
1 | 200 % of control | 195 % of control | BACE455 (from UniProt P56817 46-501) (enzyme)
2 |  | 193 % of control | BACE501 (from UniProt P56817 46-501) (enzyme)
